Here are results for one protein from paper PMC3173608, “Atomic Resolution Insights into Curli Fiber Biogenesis” (Structure(London, England:1993), 2011).

The data set deals with the molecule itself. The experiment in a line: SEC + native gel or EMSA.

Where “and” joins values, the source holds several entries; their conditions need not be identical. Equal values may be shown once.

B1: CsgG-6xHis (natural protein)
chain: CLTAPPKEAARPTLMPRAQSYKDLTHLPAPTGKIFVSVYNIQDETGQFKPYPASNFSTAVPQSATAMLVTALKDSRWFIPLERQGLQNLLNERKIIRAAQENGTVAINNRIPLQSLTAANIMVEGSIIGYESNVKSGGVGARYFGIGADTQYQLDQIAVNLRVVNVSTGEILSSVNTSKTILSYEVQAGVFRFIDYQRLLEGEVGYTSNEPVMLCLMSAIETGVIFLINDGIDRGLWDLQNKAERQNDILVKYRHMSVPPES
modifications: C16 becomes the lipidated N terminus of the mature protein (said of CsgG in general)
notes: also called recombinant CsgG-6xHis; protein-detergent complex; not shown: His6, C-terminal, kept
In the case of B1, the stoichiometry N (usually the number of molecules, sites or subunits per partner or assembly) is 7 protomers and 9 protomers.
